Results on 1 molecule are retold here after patent publication US7265263B1, “Potato transcription factors, methods of use thereof, and a method for enhancing tuber development” (Iowa State University Research Foundation, Inc., priority 2002, dated 2007).

For this experiment, the target named is T1, GAD protein alone (UniProt P04386 768-881, limits assumed).
T1 construct: Control of the immunoprecipitation
T1 sequence (looked up): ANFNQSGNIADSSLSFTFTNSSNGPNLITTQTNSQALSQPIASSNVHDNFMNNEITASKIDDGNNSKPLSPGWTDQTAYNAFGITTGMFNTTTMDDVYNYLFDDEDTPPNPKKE
Briefly: in vitro translated 35S-labelled proteins, immunoprecipitation with anti-GAD antibodies. The method, then: In vitro binding experiments were performed as described by Ni et al., "PIF3, a Phytochrome-Interacting Factor Necessary for Normal Photoinduced Signal Transduction, is a Novel Basic *Helix*-Loop-Helix Protein," *Cell* 95:657-667 (1998), which is hereby incorporated by reference in its entirety. The full-length sequence for POTH1 was cloned into a pET17b/GAD fusion cassette and transcribed under the control of the T7 promoter. The BEL cDNAs were cloned into pGEM11Z vectors and were transcribed under the control of the T7 promoter. ^35S-methionine labeled bait and prey proteins were synthesized using the TnT in vitro transcription-translation kit (Promega) according to the manufacturer's protocols. Each 50 μl TnT reaction contained 2.0 μg of template plasmid DNA and 20 μmol (20 μCi) of labeled ^35S-methionine. The POTH1:GAD/BEL complex was immunoprecipitated with anti-GAD antibodies (Santa Cruz Biotechnology, Calif.). The proteins from the pellet (one-half the fraction) and for the prey (one-fourth of the reaction volume) were resolved on a 10% SDS-PAGE gel and visualized by autoradiography.

B1: StBEL-05 protein from pGEM11Z (in vitro transcription/translation) (other)
chain: MYYQGTSDNTNIQADHQQRHNHGNSNNNNIQTLYLMNPNNYMQGYTTSDTQQQQQLLFLNSSPAASNALCHANIQHAPLQQQHFVGVPLPAVSLHDQINHHGLLQRMWNNQDQSQQVIVPSSTGVSATSCGGITTDLASQLAFQRPIPTPQHRQQQQQQGGLSLSLSPQLQQQISFNNNISSSSPRTNNVTIRGTLDGSSSNMVLGSKYLKAAQELLDEVVNIVGKSIKGDDQKKDNSMNKESMPLASDVNTNSSGGGESSSRQKNEVAVELTTAQRQELQMKKAKLLAMLEEVEQRYRQYHHQMQIIVLSFEQVAGIGSAKSYTQLALHAISKQFRCLKDAIAEQVKATSKSLGEEEGLGGKIEGSRLKFVDHHLRQQRALQQIGMMQPNAWRPQRGLPERAVSVLRAWLFEHFLHPYPKDSDKIMLAKQTGLTRSQVSNWFINARVRLWKPMVEEMYLEEVKNQEQNSTNTSGDNKNKETNISAPNEEKHPIITSSLLQDGITTTQAEISTSTISTSPTAGASLHHAHNFSFLGSFNMDNTTTTVDHIENNAKKQRNDMHKFSPSSILSSVDMEAKARESSNKGFTNPLMAAYAMGDFGRFDPHDQQMTANFHGNNGVSLTLGLPPSENLAMPVSQQNYLSNDLGSRSEMGSHYNRMGYENIDFQSGNKRFPTQLLPDFVTGNLGT
notes: 35S-methionine labelled prey; also called p11Z-5
As for B1, the binding result was “no binding”.
